Measured values: paper PMC29063

Target: GST-p35-C/EBPβ
Experiment: pull-down

B1: Elk-1 (wild type), in vitro translated (natural protein)
chain: MDPSVTLWQFLLQLLREQGNGHIISWTSRDGGEFKLVDAEEVARLWGLRKNKTNMNYDKLSRALRYYYDKNIIRKVSGQKFVYKFVSYPEVAGCSTEDCPPQPEVSVTSTMPNVAPAAIHAAPGDTVSGKPGTPKGAGMAGPGGLARSSRNEYMRSGLYSTFTIQSLQPQPPPHPRPAVVLPSAAPAGAAAPPSGSRSTSPSPLEACLEAEEAGLPLQVILTPPEAPNLKSEELNVEPGLGRALPPEVKVEGPKEELEVAGERGFVPETTKAEPEVPPQEGVPARLPAVVMDTAGQAGGHAASSPEISQPQKGRKPRDLELPLSPSLLGGPGPERTPGSGSGSGLQAPGPALTPSLLPTHTLTPVLLTPSSLPPSIHFWSTLSPIAPRSPAKLSFQFPSSGSAQVHIPSISVDGLSTPVVLSPGPQKP
modifications: labeled with [35S] methionine
Binder B1 has a percent of input retained on the beads of 35 to 45%.
